Results published in patent US20210060174.

Molecular target: human fibrinogen (UniProt P02671)

Question: cationised thrombin was tested. Which “fibrin formation, absorbance at 600 nm” value did it give?
Answer: The value was “During cationisation, the activity of thrombin was retained up to 120 minutes of cationisation, although the activity was gradually decreased with increased cationisation duration”.

Question: How did the “fibrin gel formation by primed hMSCs (confocal microscopy, Alexa-594-tagged fibrinogen)” value turn out when [cThrombin][S] was run?
Answer: The value was “[cThrombin][S] bound to cell membranes was able to cleave fibrinogen to form a fibrin gel”.
